The source of these data is publication PMC10172501, “Heparanase-2 protein and peptides have a protective effect on experimental glomerulonephritis and diabetic nephropathy” (Frontiers in Pharmacology, 2023).

The subject of one test is HPSE1. To be noted: ref Simeonovic et al., 2013; cited from earlier work. The source says:
Other HPSE1 inhibitors have been tested both in vitro and in vivo for their application in glomerular diseases as well. Administration of HPSE1 substrates, such as soluble HS, heparin, and low-molecular-weight heparins, all comprise the potential to reduce albuminuria. One example of such class of drugs is sulodexide, which is a highly purified mixture that consists for 80% of low-molecular-weight heparin and for 20% of dermatan sulfate ([Poplawska et al., 1997]).

Test [1] concerns the target T1, recombinant active human HPSE1 (Homo sapiens, UniProt Q9Y251).
T1 construct: recombinant active human HPSE1; purchased Bio-techne 7570-GH-005
T1 sequence (Q9Y251 158-543 limits assumed): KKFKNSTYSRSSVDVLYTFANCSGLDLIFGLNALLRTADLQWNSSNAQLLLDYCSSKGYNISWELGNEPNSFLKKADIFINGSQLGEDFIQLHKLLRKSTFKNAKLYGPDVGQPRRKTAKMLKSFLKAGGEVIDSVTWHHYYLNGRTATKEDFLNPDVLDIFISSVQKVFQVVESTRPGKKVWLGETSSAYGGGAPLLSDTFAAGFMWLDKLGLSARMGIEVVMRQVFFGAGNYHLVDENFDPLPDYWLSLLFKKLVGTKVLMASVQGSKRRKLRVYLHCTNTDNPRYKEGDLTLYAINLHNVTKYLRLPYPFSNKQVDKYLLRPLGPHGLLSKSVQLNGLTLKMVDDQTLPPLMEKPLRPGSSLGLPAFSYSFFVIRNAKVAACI
T1 sequence (Q9Y251 36-109 limits assumed): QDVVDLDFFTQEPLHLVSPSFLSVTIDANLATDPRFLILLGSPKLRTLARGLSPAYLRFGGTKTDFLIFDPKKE
Put plainly: HPSE1 activity assay (inhibition of HPSE1 activity; commercial kit and in-house HS-coated plate assay). Particulars: for inhibition of HPSE1 activity, first screening experiment of all 30 HPSE2 peptides: data not shown, recombinant HPSE1. The class given is biochemical. The protocol: The inhibition of HPSE1 activity by HPSE2 protein and peptides was determined by the commercially available HPSE1 assay kit and an in-house developed HPSE1 activity assay, which was optimized by the use of recombinant active human HPSE1 (Bio-techne, Abingdon, United Kingdom, Cat#7570-GH-005). The in-house developed activity assay was performed as described previously ([Buijsers et al., 2020]). In short, Nunc maxisorp flat bottom 96 plates (Thermo scientific, Breda, Netherlands) were coated with 10 μg/mL heparan sulfate from bovine kidney (HSBK) (Sigma-Aldrich, Zwijndrecht, Netherlands) in optimized HS coating buffer, overnight in a humidified chamber at RT. Subsequently, plates were blocked for minimal 2 h with 1% bacto-gelatin (Difco laboratories, Detroit, Michigan, United States) in PBS at RT whereupon HPSE1 inhibitors were added to the plate with a standard amount of recombinant HPSE1 in HPSE1 buffer. Remaining HSBK was detected with primary mouse […] IgM HS antibody JM403 (Amsbio, Abingdon, United Kingdom, cat. No. #370730-S, RRID: AB_10890960, 1 μg/mL in PBST) for 1 h at RT. Subsequently, plates were incubated with secondary goat anti-mouse IgM HRP antibody (Southern Biotech, Uden, Netherlands, cat. No. #1020–05, RRID: AB_2794201, dilution 1:10,000 in PBST) for 1 h at RT. Finally, 3,3′,5,5′-tetramethylbenzidine (TMB) substrate (Invitrogen, Breda, Netherlands) was added and reaction was stopped by addition of 2 M sulfuric acid, and absorbance was measured at 450 nm.

Test [2] relates to LPS-induced glomerulonephritis in wt C57Bl/6J mice. The test can be described thus: LPS-induced glomerulonephritis mouse model. The class given is in vivo. Particulars: for cortical IL-6 mRNA expression: Figure 5F, IL-6 not detectable in control mice. As for the experimental part: Experimental LPS-induced glomerulonephritis was induced in eight-to twelve-week-old wt C57Bl/6J mice by an i. p. injection with 80 µg LPS (O111:B4; Sigma-Aldrich Chemie, Zwijndrecht, Netherlands) as described previously ([Garsen et al., 2016a]). The mice were treated with heparanase 2 (HPSE2) protein and an equal mix of HPSE2 peptides (Thermo Fisher Scientific, Breda, Netherlands) 381–410, 391–420, and 401–430, amino acids respectively, via repeated i. v injection with 12 h intervals starting 6 h after LPS injection. Mice were sacrificed 48 h after LPS injection.
(§1) Kidneys were collected and snap frozen in liquid nitrogen and urine was collected after 18 h housing in metabolic cages upon termination. Urinary albumin was measured by radial immunodiffusion (Mancini) as described previously ([Garsen et al., 2016a]). Blood urea nitrogen (BUN) and urinary/plasma creatinine concentrations were determined routinely in our clinical diagnostic facility.
(§2) RNA was isolated from the kidney cortex using RNeasy mini kit (Qiagen) and 1 µg of RNA was reverse transcribed into cDNA using the Transcription First Strand cDNA synthesis kit (Roche, Woerden, Netherlands) according to manufacturer’s instructions. Quantitative PCR was performed with SYBR Green (Roche, Woerden, Netherlands) on a CFX 96 C1000 Thermal Cycler (Bio-rad, Lunteren, Netherlands) to determine expression levels. Data was analysed using glyceraldehyde-3-phosphate dehydrogenase (GAPDH) as housekeeping gene and by making use of the delta-delta CT method.

The subject of test [3] is STZ-induced diabetic nephropathy in wt DBA/2J mice. The test can be described thus: Streptozotocin (STZ)-induced type 1 diabetic nephropathy mouse model. The class given is in vivo. The protocol:
Experimental streptozotocin (STZ)-induced type 1 diabetes was induced in six-to eight-week-old wt DBA/2J mice (Charles River, Germany). Mice were first fasted for 4 h whereafter the mice were injected i. p. with 50 mg/kg STZ (Sigma-Aldrich Chemie, Zwijndrecht, Netherlands) in 250 mM sodium citrate buffer (pH 4.5), whereas controls were injected with sodium citrate buffer alone for 5 consecutive days. Blood glucose levels were measured twice a week using the ACCU-CHEK Aviva Blood Glucose Meter (Roche Diagnostics, Almere, Netherlands) to monitor that blood glucose levels would not raise above 25 mmol/L. Mice were implanted under the skin half an insulin pellet (LinShin Canada, Toronto, Canada) when their blood glucose level did raise above 25 mmol/L. The mice were treated with HPSE2 protein via continuous s. c infusion with an osmotic mini pump 8 weeks after the final injection with STZ for a duration of 4 weeks. Mice were sacrificed 12 weeks after induction of diabetes.
as §1, §2

Another test concerns mice induced with LPS. Particulars: LPS co-injected with protein compared to LPS alone, upon 2 h; ref Kiyan et al., 2019; cited from earlier work. As for the experimental part: Since HPSE1 is also involved in inflammation ([Goodall et al., 2014]; [Lever et al., 2014]), the increased HPSE1 and TNF-α expression might be prevented if HPSE2 is administered concomitant with LPS at induction of experimental glomerulonephritis. This effect has been shown previously by Kiyan et al. in the CLP sepsis mouse model. They reported decreased plasma levels of IL-6 and TNF-α in mice induced with LPS co-injected with full-length HPSE2 protein compared to LPS alone already upon 2 h. Unfortunately, no assessment of cytokine or HPSE1 mRNA expression in the renal cortex or other tissues ...

“Also recorded” adds a separate entry of the source.

For PI-88, in the test on HPSE1, the “HPSE1 inhibition in animal models for glomerular diseases, such as DN” value is “effective HPSE1 inhibitor”.
On to “FLWLNTLGMLANQGIDVVIRHSFFDHGYNH [HPSE2 peptide 401–430, HPSE2-derived peptide, AA region 401–430]”, for which the “inhibition of HPSE1 activity, first screening experiment of all 30 HPSE2 peptides” value in test [1] is “showed great promise as inhibitor of HPSE1 activity”; in test [1] (listed as 401–430), “most effective”.
For “GVVTTSAGGTNNLSDSYAAGFLWLNTLGML [HPSE2 peptide 381–410, HPSE2-derived peptide, AA region 381–410]”, the “inhibition of HPSE1 activity, first screening experiment of all 30 HPSE2 peptides” value in test [1] was “showed great promise as inhibitor of HPSE1 activity; also recorded: most effective”.

B1: HPSE2 protein: His-tagged mouse heparanase-2 protein produced by in vitro translation in HeLa lysate; b60 values from Kiyan et al. concern their protein (protein, UniProt B2RY83 1-592, looked up)
chain: MRVLCAFPEAMASSSSRPPSCLALVALFLALLLHLSLSFHAGNRRPLPVDRATGLKEKTLILLDVSTKNPVRTVNENFLSLQLDPSIIHDGWLDFLSSKRLVTLARGLSPAFLRFGGKRTDFLQFQNLRNPAKSRGGPGPDYYLKNYEDDIVRSDVALDKQKGCKIAQHPDVMLELQREKASQMHLVLLKEQYSNTYSNLILTARSLDKLYNFADCSGLHLIFALNALRRNPNNSWNSSSALSLLKYSASKKYNISWELGNEPNNYRSIHGRAVNGSQLGKDYIQLKSLLQPIRVYSRASLYGPNIGRPRKNVIALLDGFMKVAGSTVDAVTWQHCYIDGRVVKVMDFLKTRLLDTLSDQIRKIQKVVNTYTPGKKIWLEGVVTTSAGGTNNLSDSYAAGFLWLNTLGMLANQGIDVVIRHSFFDHGYNHLVDQNFNPLPDYWLSLLYKRLIGPKVLAVHVAGLQRKPRPGRVIRDKLRIYAHCTNHHNHNYVRGSITLFIINLHRSRKKIKLAGTLRDKLVHQYLLQPYGQEGLKSKSVQLNGQPLVMVDDGTLPELKPRPLRAGRTLVIPPVTMGFYVVKNVNALACRYR
modifications: full-length His tag
notes: His-tagged mouse heparanase-2 protein produced by in vitro translation in HeLa lysate; b60 values from Kiyan et al. concern their protein
In the case of B1, the “dose response inhibition of recombinant human HPSE1” value in test [1] (Figure 4, HS from bovine kidney coated plates, remaining HS detected with JM403, absorbance 450 nm) is on record as “dose-dependent inhibition of HPSE1 activity”. In addition, the plasma creatinine levels entry in test [2] (80 µg LPS i.p., repeated i.v. injection at 12 h intervals starting 6 h after LPS, 48 h, n ≥ 4, Figure 5B) was “significantly ameliorated”. The “urinary albumin creatinine ratio” value in test [2] (80 µg LPS i.p., repeated i.v. injection at 12 h intervals starting 6 h after LPS, 48 h, n ≥ 4, Figure 5C) is on record as “significantly ameliorated; also recorded: dose response inhibitory effect”; in test [3] (STZ 50 mg/kg i.p. 5 days, continuous s.c. infusion by osmotic mini pump from 8 weeks after STZ for 4 weeks, sacrificed at 12 weeks, n ≥ 5, Figure 6C), “significantly ameliorated”. Also, in test [2] (80 µg LPS i.p., repeated i.v. injection at 12 h intervals starting 6 h after LPS, sacrificed 48 h after LPS, mean ± SEM, n ≥ 4, Figure 5A), the “blood urea nitrogen (BUN)” value is given as “significantly ameliorated; also recorded: dose response inhibitory effect”. The “cortical HPSE1 mRNA expression” value in test [2] (LPS model, 2 days, qPCR, GAPDH housekeeping, Figure 5D) is listed as “unaltered”; in test [3] (STZ model, 12 weeks, qPCR, Figure 6D), “unaltered”. For the same molecule, the “cortical TNF-α mRNA expression” value in test [2] (LPS model, 2 days, qPCR, Figure 5E) is “unaltered”; in test [3] (STZ model, 12 weeks, qPCR, Figure 6E), “unaltered”. In addition, the “cortical IL-6 mRNA expression” value in test [2] (LPS model, 2 days, qPCR) is reported as “decrease”; in test [2] (LPS model, 2 days, qPCR, listed as HPSE2), “near-significantly decreased”; in test [3] (STZ model, 12 weeks, qPCR, with versus without treatment, Figure 6F) it was “did not show a significant difference”. Further, the “plasma levels of IL-6” value in the test with mice induced with LPS is reported as “decreased”. Also, the “plasma levels of TNF-α” value with mice induced with LPS was “decreased”.
